Assay [1] has as its target T1, LOV domain of White Collar 1 (WC-1) bound to the Gal4 DNA binding domain (Neurospora crassa, UniProt Q01371 381-508).
T1 construct: White Collar 1 (WC-1), blue-light photoreceptor of Neurospora crassa; LOV domain only; also called WC-1 LOV-BD; WC-1 LOV plus GAL4-DBD; source: yeast two-hybrid fusion; S. cerevisiae BY4741 (wt or gal4Δ-gal80Δ), episomal pRS423, ADH1 promoter
T1 sequence (looked up): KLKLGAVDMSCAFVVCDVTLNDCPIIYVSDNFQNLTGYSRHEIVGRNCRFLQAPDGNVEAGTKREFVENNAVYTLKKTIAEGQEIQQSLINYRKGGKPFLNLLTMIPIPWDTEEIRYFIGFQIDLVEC
Briefly: two-hybrid; FUN-LOV switch in S. cerevisiae; luciferase activity in protein extracts of cells grown 8 h in constant light (LL) against constant darkness (DD), normalised to total protein. The conditions noted are these: partners not purified.

For assay [2], the target named is T1, LOV domain of White Collar 1 (WC-1) …. Briefly: two-hybrid; FUN-LOV switch in S. cerevisiae; destabilized firefly luciferase reporter under P_(GAL1) or P_(5XGAL1); luminescence of living cells normalised by OD600; constant white light (100 µmol m^-2 s^-1) or constant blue light (20 µmol m^-2 s^-1), 30°C; fold induction against the average background in constant darkness. To be noted: partners not purified.

B1: full-length VIVID (VVD) tethered to the Gal4 transactivation domain (natural protein, Neurospora crassa, UniProt Q9C3Y6 1-186, looked up)
chain: MSHTVNSSTMNPWEVEAYQQYHYDPRTAPTANPLFFHTLYAPGGYDIMGYLIQIMNRPNPQVELGPVDTSCALILCDLKQKDTPIVYASEAFLYMTGYSNAEVLGRNCRFLQSPDGMVKPKSTRKYVDSNTINTMRKAIDRNAEVQVEVVNFKKNGQRFVNFLTMIPVRDETGEYRYSMGFQCETE
notes: VIVID (VVD), blue-light photoreceptor of Neurospora crassa; full-length VVD and not just VVD-36; also called VVD-AD; VVD plus GAL4-AD; source: yeast two-hybrid fusion; S. cerevisiae BY4741 (wt or gal4Δ-gal80Δ), episomal pRS425, ADH1 promoter
For the molecule B1, the “fold induction of luciferase activity in protein extracts, LL over DD” value in assay [1] was ~2500 fold. In assay [2], the “fold induction of the luciferase reporter, blue light over darkness (P_(5XGAL1))” value is 1320 fold and the “fold induction of the luciferase reporter, white light over darkness (P_(5XGAL1))” value is 1220 fold.

The values are drawn from PMC6069114, “Fungal Light-Oxygen-Voltage Domains for Optogenetic Control of Gene Expression and Flocculation in Yeast” (mBio, 2018).
